From patent US7094581B2, “Hyaluronan synthases and methods of making and using same” (The Board of Regents of the University of Oklahoma, priority 1998, dated 2006) come the findings set out here.

Read-outs that look alike come from different tables or passages of the source.

As a reminder, the Km is the concentration of substrate that gives half-maximal velocity.

The data set deals with spHAS. Description: Kinetic analysis of Cys-mutants of spHAS, normalized to spHAS protein. The class given is biochemical, Streptococcus pyogenes. More on the design: Vmax: unit not given here. As for the experimental part:
Kinetic analyses of the single and multiple spHAS Cys-mutants were performed to investigate the possibility that multiple Cys residues are critical in a coordinated way for enzyme activity. […] The spHAS(C225S) and spHAS(C280A) mutants had the most reduced activities with Vmax values at 30–50% of wildtype. The spHAS(C261,280A) and Cys-null mutant had 50–75% of the wildtype activity.
Membranes were isolated from E. coli SURE strains expressing mutant or wildtype spHAS, fractionated by SDS-PAGE according to the procedure of Laemmli (1970) and the proteins were electrotransferred to nitrocellulose as described by Towbin et al. (1979) with minor modifications (Tlapak-Simmons, et al., 1998). Western analysis was performed by incubating these blots for 1 h at room temperature with a biotinylated anti-His5 monoclonal antibody, as the primary antibody, then washing and incubating with 3 μg/ml ^125I-streptavidin, prepared as described hereinabove. After 1 h at room temperature, the blots were washed, dried and exposed to a Phosphoscreen for 1 to 72 h. The screens were analyzed using a Molecular Dynamics Phosphoimager and integrated density values were obtained for each spHAS band. Integrated density values were also obtained for increasing amounts of affinity-purified spHAS (Tlapak-Simmons et al., 1999a), which was used as an internal standard in the same blot to generate a standard curve. Dilutions of membrane samples were made as necessary to ensure that all estimates of HAS quantity were in the linear range of the assay. Those membrane samples giving a linear response with increasing protein were then compared to the standard curve to calculate the amount of spHAS present per μl membrane suspension. These values were then used to normalize the kinetic results obtained using membranes from the various spHAS mutants.
E. coli SURE cells, previously transformed with plasmids containing wildtype or mutant spHAS genes, were grown to an A600 of ˜1.2 and induced with 1 mM isopropyl thio-β-D-galactoside for three h. Cells were harvested and membranes were prepared as described previously (Tlapak-Simmons, et al., 1999a). The activities of mutant spHAS variants were assessed by measuring their Vmax and Km values in isolated membranes, normalized as described above for the amount of enzyme expressed. The Km values were determined using a descending paper chromatography assay (Tlapak-Simmons, et al., 1999b), holding one UDP-sugar substrate constant and varying the other from 0.01 to 4 mM. Data were analyzed by linear regression using Haynes-Wolf plots for UDP-GIcUA or Hill plots for UDP-GIcNAc.

B1: Wildtype: wildtype Streptococcus pyogenes hyaluronan synthase (spHAS-His6), SEQ ID NO:4 (protein)
chain: MPIFKKTLIVLSFIFLISILIYLNMYLFGTSTVGIYGVILITYLVIKLGLSFLYEPFKGNPHDYKVAAVIPSYNEDAESLLETLKSVLAQTYPLSEIYIVDDGSSNTDAIQLIEEYVNREVDICRNVIVHRSLVNKGKRHAQAWAFERSDADVFLTVDSDTYIYPNALEELLKSFNDETVYAATGHLNARNRQTNLLTRLTDIRYDNAFGVERAAQSLTGNILVCSGPLSIYRREVIIPNLERYKNQTFLGLPVSIGDDRCLTNYAIDLGRTVYQSTARCDTDVPFQLKSYLKQQNRWNKSFFRESIISVKKILSNPIVALWTIFEVVMFMMLIVAIGNLLFNQAIQLDLIKLFAFLSIIFIVALCRNVHYMVKHPASFLLSPLYGILHLFVLQPLKLYSLCTIKNTEWGTRKKVTIFK
modifications: His6 tag; Streptococcus pyogenes
In the case of B1, for the setting “UDP-GlcNAc utilization”, the “Hill number” value is on record as 1.8 ± 0.1. Also, the Km runs as follows: (at 0.5 mM UDP-GlcUA, read-out: Km UDP-GlcNAc) 398 ± 112 µM; (at 1.5 mM UDP-GlcNAc, read-out: Km UDP-GlcUA) 50.4 ± 10.8 µM. In addition, the Vmax (both substrates incorporated per hour per pmol spHAS) was found to be 791 ± 215.
